Earlier results as cited in article PMC10935721.

Tested on: Tyr32
Conditions: reduced (non-radical) X32

α3Y (de novo three-helix bundle with Tyr32) (synthetic construct (de novo designed))
pKa: 11.3 (±0.1)
